From IntAct's records for PubMed 15546359

B1: Auxin-responsive protein IAA1 (Arabidopsis thaliana (Mouse-ear cress)), P49677 (parent)
chain: MEVTNGLNLKDTELRLGLPGAQEEQQLELSCVRSNNKRKNNDSTEESAPPPAKTQIVGWPPVRSNRKNNNNKNVSYVKVSMDGAPYLRKIDLKMYKNYPELLKALENMFKFTVGEYSEREGYKGSGFVPTYEDKDGDWMLVGDVPWDMFSSSCQKLRIMKGSEAPTAL
partner: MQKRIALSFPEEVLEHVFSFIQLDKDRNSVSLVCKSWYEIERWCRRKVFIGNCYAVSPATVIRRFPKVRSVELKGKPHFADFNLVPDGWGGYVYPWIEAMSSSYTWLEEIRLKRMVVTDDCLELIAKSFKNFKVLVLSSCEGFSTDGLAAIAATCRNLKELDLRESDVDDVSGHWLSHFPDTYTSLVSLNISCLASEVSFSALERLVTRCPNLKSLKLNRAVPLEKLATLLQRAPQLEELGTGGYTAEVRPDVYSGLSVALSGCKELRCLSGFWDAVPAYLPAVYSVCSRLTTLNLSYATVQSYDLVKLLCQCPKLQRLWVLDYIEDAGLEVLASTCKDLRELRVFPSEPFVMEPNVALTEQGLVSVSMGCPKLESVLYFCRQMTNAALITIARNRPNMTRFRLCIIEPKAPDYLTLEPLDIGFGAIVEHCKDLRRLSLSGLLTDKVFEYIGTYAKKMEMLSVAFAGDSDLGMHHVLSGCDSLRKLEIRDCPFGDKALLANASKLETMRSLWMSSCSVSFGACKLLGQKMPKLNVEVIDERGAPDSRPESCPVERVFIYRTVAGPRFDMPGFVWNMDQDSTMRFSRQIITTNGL

Variants of: B1
Settings: with tir1_arath TIR1, Q570C0

Variant | effect of a mutation on the interaction
MEVTNGLNLKDTELRLGLPGAQEEQQLELSCVRSNNKRKNNDSTEESAPPPAKTQIVGWPSVRSNRKNNNNKNVSYVKVSMDGAPYLRKIDLKMYKNYPELLKALENMFKFTVGEYSEREGYKGSGFVPTYEDKDGDWMLVGDVPWDMFSSSCQKLRIMKGSEAPTAL [P61S] | decreasing interaction
